According to PMC2899887 (Biochemistry, 2010):
Where no end group is shown, it is not given here.

T1: isolated 2nd SH3 domain (SH3.2) of human Nck2, residues 112-168 (human, UniProt O43639 112-168)
T1 sequence (looked up): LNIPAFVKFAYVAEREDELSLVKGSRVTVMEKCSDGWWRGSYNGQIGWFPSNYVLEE

T2: Nck2_70-168 (human, UniProt O43639 70-168)
T2 sequence (looked up): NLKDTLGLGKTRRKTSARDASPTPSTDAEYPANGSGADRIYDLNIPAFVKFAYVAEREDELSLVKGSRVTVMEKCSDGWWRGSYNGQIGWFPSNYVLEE


Experiments:
[1] = target: EGFR 647-654 (Homo sapiens) (UniProt P00533); test: NMR; conditions: cited from earlier work
[2] = target: T1, isolated 2nd SH3 domain (SH3.2) of …; test: NMR titration
Nck2_70-168 = target: T2, Nck2_70-168; test: NMR titration

Row | Molecule | fold increase of Kd against the isolated SH3.2 domain (Nck2_70-168) [fold] | also measured
1 | Nck1 SH3.2 (from UniProt P16333) |  | Kd [1]: 80 µM
2 | LKDTLGLGKTRRKTSARDAS-NH2 [Nck2_71-90 peptide] |  | Kd [2]: ~1700 µM

The next lines start with results.

Row | fold increase of Kd against the isolated SH3.2 domain (Nck2_70-168) [fold] | Molecule | also measured
3 | 4.7 | EVPVPPPVPPRR-NH2 [SOS1 peptide (1146-EVPVPPPVPPRR-1157)] | 
4 | 4.7 | QDKPPAPPMRN-NH2 [Pak1 peptide (9-QDKPPAPPMRN-19)] | 
